# From patent publication US20120301472A1 (DUKE UNIVERSITY, published 2012)
# Experiments:
# [1] = molecular target: T1, native human CD22 (hCD22) (human, UniProt P20273 20-847); test: hybridoma screen on CD22-transfected mouse L cells
# T1 construct: On Raji and Ramos Burkitt lymphoma cells (Scatchard analysis, flow cytometry) and on mouse L cells transfected with full-length CD22 cDNA (hybridoma screen)
# Source text: Monoclonal antibodies (mAbs) HB22-7 (IgG2b), HB22-23 (IgG2a), HB22-33 (IgM), HB22-5 (IgG2a), HB22-13 (IgG2a), HB22-22 (IgA), and HB22-196 were produced according to the method of Engel et al., J Immunol 15:4710 (1993) and U.S. Pat. No. 5,484,892. See, also Tuscano et al, Blood 94:1382-1392 (1999). However, other methods may be used. Briefly, the HB22 mAbs were produced via hybridoma techniques using a mouse pre-B cell line 300.19, stably transfected with full length CD22 cDNA, as the immunogen. More specifically, thirty-three mAbs reactive with CD22 were generated by the fusion of NS-1 myeloma cell with spleen cells from Balb/c mice immunized three times with a mouse pre-B cell line, 300.19, stably transfected with a full-length CD22 cDNA. Hybridomas producing mAb reactive with mouse L cells transfected with CD22 cDNA, but not with untransfected cells, were cloned twice and used to generate supernatant or ascites fluid. mAb isotypes were determined using the Mouse Monoclonal Antibody Isotyping Kit (Amersham, Arlington Heights, Ill.). IgGmAb were purified using the Affi-Gel Protein A MAPS II Kit (Bio-Rad, Richmond, Calif.).
# [2] = molecular target: T1, native human CD22 (hCD22); test: Scatchard analysis, Raji against Ramos cells
# Description: Cell lines and Scatchard Analysis. Raji and Ramos Burkitt lymphoma, cell lines were purchased from American Type Culture Collection (ATCC, Manassas, Va.). Both cell lines stained for CD22 expression by flow cytometric methods utilizing the HB22-7 mAb, as described previously (Tuscano et al., supra). The cell lines were maintained in RPMI 1640 supplemented with 10% fetal calf serum at 0.5 times. 10⁶ cells/ml. A Scatchard analysis using Raji and Ramos cells was performed as described previously (Scatchard, G., Ann. of NY Acad Sci. 51:660 (1947)). Briefly, HB22-7 was labeled with ¹²⁵ I by the chloramine T method (specific activity of […]). A competitive binding assay was performed utilizing serially diluted, unlabeled HB22-7.
# Scatchard analysis was utilized to assess the binding affinity of HB22-7 and the number of CD22 receptors on Ramos and Raji cells. The cells were assayed for maximum, binding percentage (Bmax), disassociation constant (Ka) and number of antibodies bound per cell. The results shown in Table 1 are the average of two experiments.
# T1 sequence (P20273 other isoform, or with tags, fused parts or gaps limits assumed): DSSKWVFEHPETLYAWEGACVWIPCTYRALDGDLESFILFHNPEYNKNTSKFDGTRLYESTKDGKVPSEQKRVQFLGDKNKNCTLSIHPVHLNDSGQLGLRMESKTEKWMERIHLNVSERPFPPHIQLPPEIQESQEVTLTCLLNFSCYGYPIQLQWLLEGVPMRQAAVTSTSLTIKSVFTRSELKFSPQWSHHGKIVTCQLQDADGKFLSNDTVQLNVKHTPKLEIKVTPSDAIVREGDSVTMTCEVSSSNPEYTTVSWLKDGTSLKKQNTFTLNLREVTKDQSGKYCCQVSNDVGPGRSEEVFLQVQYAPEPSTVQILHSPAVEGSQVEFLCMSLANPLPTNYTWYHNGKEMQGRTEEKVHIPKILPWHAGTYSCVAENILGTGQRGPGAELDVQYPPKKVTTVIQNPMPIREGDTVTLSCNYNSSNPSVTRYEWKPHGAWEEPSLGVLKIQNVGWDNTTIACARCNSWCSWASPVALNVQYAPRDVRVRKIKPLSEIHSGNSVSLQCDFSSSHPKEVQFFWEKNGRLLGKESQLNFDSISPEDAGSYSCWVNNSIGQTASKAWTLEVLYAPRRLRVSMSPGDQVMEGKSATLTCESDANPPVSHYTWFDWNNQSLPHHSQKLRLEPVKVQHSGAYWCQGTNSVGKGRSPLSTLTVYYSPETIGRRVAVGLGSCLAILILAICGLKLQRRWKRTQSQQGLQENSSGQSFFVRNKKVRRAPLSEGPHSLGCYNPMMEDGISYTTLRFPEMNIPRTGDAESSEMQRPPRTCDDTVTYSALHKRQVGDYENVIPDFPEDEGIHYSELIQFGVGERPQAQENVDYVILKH
Binder,binding result [1],"fold increase in Ka, Raji cells versus Ramos cells [2]","fold increase in antibodies bound per cell and Bmax, Raji cells versus Ramos cells [2]"
"anti-CD22 monoclonal antibody HB22-5 (antibody, V domains shown) VH: EVQLQESGPELVKPGASMKISCKASGYSFTDYTMNWVKQSHGKNLEWIGLLHPFNGGTSYNQKFKGKATLSVDKSSSTAFMELLSLTSEDSAVYFCARGTGRNYAMDYWGQGTSVTVSS VL: SIVMTQTPKFLLVSTGDRVTITCKASQTVTNDLAWYQQKPGQSPKLLIYYASNRYTGVPDRFTGSGYGTDFTFTINTVQAEDLAVYFCQQDYSSPLTFGAGTKLELKR",binds,,
"anti-CD22 monoclonal antibody HB22-7 (antibody, V domains shown, Labelled with 125I for the Scatchard assay; also called HB11347; anti-CD22 mAb) VH: EVQLQESGPGLVAPSQSLSITCTVSGFSLSDYGVNWVRQIPGKGLEWLGIIWGDGRTDYNSALKSRLNISKDNSKSQVFLKMNSLKADDTARYYCARAPGNRAMEYWGQGTSVTVSS VL: SIVMTQTPKFLLVSAGDRITLTCKASQSVTNDVAWYQQKPGQSPKLLIYYASNRYTGVPDRFTGSGYGTDFTFTISTVQAEDLAVYFCQQDYRSPWTFGGGTKLEIKR",,2 fold,~2.5 fold

# Second part, the binder after the results:
binding result [1],"fold increase in Ka, Raji cells versus Ramos cells [2]","fold increase in antibodies bound per cell and Bmax, Raji cells versus Ramos cells [2]",Binder
binds,,,"anti-CD22 monoclonal antibody HB22-13 (antibody, V domains shown) VH: EVQLQESGGGLVQPGGSLRLSCATSGFTFIDYYMNWVRQPPGKALEWLGFIKNKFNGYTTEYNTSVKGRFTISRDNSQSILYLQMNTLRAEDSATYYCARGLGRSYAMDYWGQGTSVTVSS VL: SIVMTQTPKFLLVSAGDRVSITCKASQSVTNDVTWYQQKPGQSPKLLIYFASNRYTGVPDRFTGSGYGTDFTFTISTVQAEDLAVYFCQQDYSSPLTFGAGTKLELKR"
binds,,,"anti-CD22 monoclonal antibody HB22-33 (antibody, V domains shown) VH: EVQLQESGPGLVKPSQSLSLTCSVTGYSITSGYYWNWIRQFPGNKLEWMGYIRYDGSNNYNPSLKNRISITRDTSKNQFFLKLNSVTTEDTATYYCARGGITVAMDYWGQGTSVTVSS VL: not shown"
